Patent US20140274782A1, “AFFINITY REAGENTS AND METHODS FOR DETECTION, PURIFICATION, AND PROTEOMIC ANALYSIS OF METHYLATED PROTEINS” (The Board of Trustees of the Leland Stanford Junior …, priority 2013, published 2014)

Experiments:
Experiment in all cases: ProtoArray methylated with G9a SET domain
[1] = biological target: YPEL5, G9a-methylated (human) (UniProt P62699)
[2] = biological target: FTL, G9a-methylated (human) (UniProt P02792)
[3] = biological target: BHMT, G9a-methylated (human) (UniProt Q93088)
[4] = biological target: UBE2D2, G9a-methylated (human) (UniProt P62837)
[5] = biological target: SH3YL1 (hit 65), G9a-methylated (human) (UniProt Q96HL8)
Sequence of SH3YL1 (hit 65), G9a-methylated (human) (Q96HL8 whole entry): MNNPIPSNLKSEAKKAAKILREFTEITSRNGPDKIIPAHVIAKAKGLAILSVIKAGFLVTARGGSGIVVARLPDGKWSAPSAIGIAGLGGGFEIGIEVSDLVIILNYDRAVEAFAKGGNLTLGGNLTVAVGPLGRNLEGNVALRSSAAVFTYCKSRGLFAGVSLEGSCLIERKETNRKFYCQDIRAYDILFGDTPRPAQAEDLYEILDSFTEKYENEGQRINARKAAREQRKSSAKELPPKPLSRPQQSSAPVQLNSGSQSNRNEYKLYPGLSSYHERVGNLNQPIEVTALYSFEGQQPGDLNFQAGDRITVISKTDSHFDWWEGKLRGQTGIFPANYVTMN

[6] = biological target: WDR45, G9a-methylated (human) (UniProt Q9Y484)
Sequence of WDR45, G9a-methylated (human) (Q9Y484 other isoform, or with tags, fused parts or gaps limits assumed): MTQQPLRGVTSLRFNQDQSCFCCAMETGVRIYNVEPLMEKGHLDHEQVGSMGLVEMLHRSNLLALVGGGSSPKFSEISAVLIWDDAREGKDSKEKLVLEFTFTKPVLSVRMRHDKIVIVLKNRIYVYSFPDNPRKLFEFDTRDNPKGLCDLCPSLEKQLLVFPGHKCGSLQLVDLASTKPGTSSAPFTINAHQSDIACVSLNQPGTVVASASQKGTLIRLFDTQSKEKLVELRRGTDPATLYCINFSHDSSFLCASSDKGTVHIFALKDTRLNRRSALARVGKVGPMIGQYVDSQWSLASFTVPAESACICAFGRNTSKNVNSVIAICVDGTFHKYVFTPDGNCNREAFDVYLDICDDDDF

[7] = biological target: TMEM97, G9a-methylated (human) (UniProt Q5BJF2)
Sequence of TMEM97, G9a-methylated (human) (Q5BJF2 whole entry): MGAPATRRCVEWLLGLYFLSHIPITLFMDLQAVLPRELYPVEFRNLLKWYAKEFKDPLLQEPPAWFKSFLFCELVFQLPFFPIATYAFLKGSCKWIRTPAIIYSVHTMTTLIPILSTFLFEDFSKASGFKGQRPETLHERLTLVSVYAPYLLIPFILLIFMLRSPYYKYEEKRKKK

[8] = biological target: SEC22B, G9a-methylated (human) (UniProt O75396)
[9] = biological target: NME1, G9a-methylated (human) (UniProt P15531)
[10] = biological target: SMAP1, G9a-methylated (human) (UniProt Q8IYB5)
Sequence of SMAP1, G9a-methylated (human) (Q8IYB5 whole entry): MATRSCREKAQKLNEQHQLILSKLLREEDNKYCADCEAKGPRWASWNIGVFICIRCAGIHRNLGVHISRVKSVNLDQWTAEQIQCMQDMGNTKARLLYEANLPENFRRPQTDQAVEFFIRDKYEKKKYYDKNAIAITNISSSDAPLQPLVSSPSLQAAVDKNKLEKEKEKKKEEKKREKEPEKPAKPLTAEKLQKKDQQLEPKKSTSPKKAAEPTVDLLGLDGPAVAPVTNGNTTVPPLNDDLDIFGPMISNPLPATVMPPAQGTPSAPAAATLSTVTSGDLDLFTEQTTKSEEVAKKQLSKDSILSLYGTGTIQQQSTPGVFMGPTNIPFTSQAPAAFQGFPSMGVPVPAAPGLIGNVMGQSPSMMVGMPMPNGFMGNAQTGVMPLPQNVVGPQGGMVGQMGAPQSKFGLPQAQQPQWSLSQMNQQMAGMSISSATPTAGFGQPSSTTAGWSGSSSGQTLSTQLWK

[11] = biological target: PPIL5, G9a-methylated (human) (UniProt Q96L50)
[12] = biological target: TMEM32, G9a-methylated (human) (UniProt Q8N4V1)
Sequence of TMEM32, G9a-methylated (human) (Q8N4V1 whole entry): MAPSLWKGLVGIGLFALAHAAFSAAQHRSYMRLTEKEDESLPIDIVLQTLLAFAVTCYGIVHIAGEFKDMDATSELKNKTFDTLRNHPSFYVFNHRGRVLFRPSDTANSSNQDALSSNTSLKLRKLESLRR

[13] = biological target: UBE2S, G9a-methylated (human) (UniProt Q16763)
[14] = biological target: RDH11, G9a-methylated (human) (UniProt Q8TC12)
[15] = biological target: SAR1B, G9a-methylated (human) (UniProt Q9Y6B6)
[16] = biological target: LYPLAL1, G9a-methylated (human) (UniProt Q5VWZ2)
[17] = biological target: RASSF4, G9a-methylated (human) (UniProt Q9H2L5)
Sequence of RASSF4, G9a-methylated (human) (Q9H2L5 whole entry): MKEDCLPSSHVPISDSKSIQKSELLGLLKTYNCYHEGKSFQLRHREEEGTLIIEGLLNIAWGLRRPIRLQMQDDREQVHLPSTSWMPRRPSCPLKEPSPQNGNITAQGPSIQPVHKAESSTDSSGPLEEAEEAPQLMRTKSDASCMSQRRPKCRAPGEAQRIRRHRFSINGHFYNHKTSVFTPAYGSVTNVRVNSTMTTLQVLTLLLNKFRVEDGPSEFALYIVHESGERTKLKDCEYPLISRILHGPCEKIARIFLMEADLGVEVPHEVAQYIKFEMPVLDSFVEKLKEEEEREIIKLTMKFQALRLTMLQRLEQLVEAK

[18] = biological target: CTSZ, G9a-methylated (human) (UniProt Q9UBR2)
[19] = biological target: C10orf83, G9a-methylated (human) (UniProt Q8NDC4)
Sequence of C10orf83, G9a-methylated (human) (Q8NDC4 whole entry): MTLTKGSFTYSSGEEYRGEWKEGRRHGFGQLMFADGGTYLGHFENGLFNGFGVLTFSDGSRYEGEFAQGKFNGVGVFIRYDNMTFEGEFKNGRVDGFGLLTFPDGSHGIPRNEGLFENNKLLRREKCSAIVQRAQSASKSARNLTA

[20] = biological target: GPX5, G9a-methylated (human) (UniProt O75715)
Sequence of GPX5, G9a-methylated (human) (O75715 other isoform, or with tags, fused parts or gaps limits assumed): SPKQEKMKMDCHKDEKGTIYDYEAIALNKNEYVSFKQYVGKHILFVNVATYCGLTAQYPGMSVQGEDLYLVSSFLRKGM

[21] = biological target: TCTA, G9a-methylated (human) (UniProt P57738)
Sequence of TCTA, G9a-methylated (human) (P57738 whole entry): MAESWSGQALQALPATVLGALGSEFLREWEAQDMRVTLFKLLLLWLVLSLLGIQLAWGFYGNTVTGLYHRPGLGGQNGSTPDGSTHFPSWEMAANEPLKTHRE

[22] = biological target: RAB33B, G9a-methylated (human) (UniProt Q9H082)
[23] = biological target: FTH1 (hit 109), G9a-methylated (human) (UniProt P02794)
Sequence of FTH1 (hit 109), G9a-methylated (human) (P02794 whole entry): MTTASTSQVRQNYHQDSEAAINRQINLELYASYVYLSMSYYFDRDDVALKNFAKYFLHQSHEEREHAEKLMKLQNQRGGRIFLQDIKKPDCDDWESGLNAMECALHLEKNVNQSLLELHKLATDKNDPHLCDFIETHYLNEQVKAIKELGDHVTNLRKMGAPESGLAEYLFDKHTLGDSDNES

[24] = biological target: GGPS1, G9a-methylated (human) (UniProt O95749)
[25] = biological target: C1QTNF6, G9a-methylated (human) (UniProt Q9BXI9)
[26] = biological target: DIRAS1, G9a-methylated (human) (UniProt O95057)
[27] = biological target: SMYD3, G9a-methylated (human) (UniProt Q9H7B4)
Sequence of SMYD3, G9a-methylated (human) (Q9H7B4 whole entry): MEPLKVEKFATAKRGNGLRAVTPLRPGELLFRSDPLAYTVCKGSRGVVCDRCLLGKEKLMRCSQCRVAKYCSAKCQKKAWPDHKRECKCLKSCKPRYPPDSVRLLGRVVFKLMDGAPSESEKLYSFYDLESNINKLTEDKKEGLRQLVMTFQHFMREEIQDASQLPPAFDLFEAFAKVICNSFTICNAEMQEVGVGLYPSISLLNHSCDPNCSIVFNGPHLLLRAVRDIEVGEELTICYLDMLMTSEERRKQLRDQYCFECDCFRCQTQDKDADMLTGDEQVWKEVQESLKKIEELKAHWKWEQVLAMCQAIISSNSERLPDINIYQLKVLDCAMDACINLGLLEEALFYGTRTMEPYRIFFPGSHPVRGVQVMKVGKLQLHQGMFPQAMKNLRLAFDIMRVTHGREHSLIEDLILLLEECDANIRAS

[28] = biological target: C2orf43, G9a-methylated (human) (UniProt Q9H6V9)
Sequence of C2orf43, G9a-methylated (human) (Q9H6V9 whole entry): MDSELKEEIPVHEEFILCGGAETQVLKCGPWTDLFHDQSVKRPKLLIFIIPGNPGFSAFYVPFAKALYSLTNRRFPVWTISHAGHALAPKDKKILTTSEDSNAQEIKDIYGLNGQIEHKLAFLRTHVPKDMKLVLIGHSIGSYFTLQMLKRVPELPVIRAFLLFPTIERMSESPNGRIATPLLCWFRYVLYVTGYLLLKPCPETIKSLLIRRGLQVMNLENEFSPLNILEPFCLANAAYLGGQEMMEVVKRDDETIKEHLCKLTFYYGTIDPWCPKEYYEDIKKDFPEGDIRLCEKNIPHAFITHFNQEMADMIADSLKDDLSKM

[29] = biological target: CDK10, G9a-methylated (human) (UniProt Q15131)
[30] = biological target: GPX1, G9a-methylated (human) (UniProt P07203)
[31] = biological target: MAGEH1, G9a-methylated (human) (UniProt Q9H213)
[32] = biological target: MOBKL3, G9a-methylated (human) (UniProt Q9Y3A3)
[33] = biological target: TTC27, G9a-methylated (human) (UniProt Q6P3X3)
[34] = biological target: MRPL21, G9a-methylated (human) (UniProt Q7Z2W9)
[35] = biological target: DYNC2LI1, G9a-methylated (human) (UniProt Q8TCX1)
[36] = biological target: CNTD1, G9a-methylated (human) (UniProt Q8N815)
Sequence of CNTD1, G9a-methylated (human) (Q8N815 whole entry): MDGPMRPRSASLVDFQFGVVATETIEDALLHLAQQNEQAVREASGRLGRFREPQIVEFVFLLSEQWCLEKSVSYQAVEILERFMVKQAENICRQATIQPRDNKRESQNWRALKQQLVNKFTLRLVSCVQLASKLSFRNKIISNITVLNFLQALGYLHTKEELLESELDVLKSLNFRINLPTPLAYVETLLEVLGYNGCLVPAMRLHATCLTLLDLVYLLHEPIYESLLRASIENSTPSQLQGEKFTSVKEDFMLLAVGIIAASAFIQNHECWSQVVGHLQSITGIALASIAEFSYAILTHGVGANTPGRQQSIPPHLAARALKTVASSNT

[37] = biological target: LYRM7, G9a-methylated (human) (UniProt Q5U5X0)
Sequence of LYRM7, G9a-methylated (human) (Q5U5X0 whole entry): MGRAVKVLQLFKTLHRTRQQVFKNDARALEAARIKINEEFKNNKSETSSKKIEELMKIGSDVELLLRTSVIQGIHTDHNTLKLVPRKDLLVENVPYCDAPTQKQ

[38] = biological target: CSF3, G9a-methylated (human) (UniProt P09919)
Sequence of CSF3, G9a-methylated (human) (P09919 31-207 limits assumed): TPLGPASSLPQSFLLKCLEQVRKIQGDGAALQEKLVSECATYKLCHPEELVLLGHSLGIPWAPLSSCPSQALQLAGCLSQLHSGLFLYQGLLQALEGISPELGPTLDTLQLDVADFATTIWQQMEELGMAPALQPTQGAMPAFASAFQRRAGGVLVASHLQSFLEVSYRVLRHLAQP

[39] = biological target: CAB39L, G9a-methylated (human) (UniProt Q9H9S4)
[40] = biological target: CCL24, G9a-methylated (human) (UniProt O00175)
[41] = biological target: CDK5RAP3, G9a-methylated (human) (UniProt Q96JB5)
Sequence of CDK5RAP3, G9a-methylated (human) (Q96JB5 whole entry): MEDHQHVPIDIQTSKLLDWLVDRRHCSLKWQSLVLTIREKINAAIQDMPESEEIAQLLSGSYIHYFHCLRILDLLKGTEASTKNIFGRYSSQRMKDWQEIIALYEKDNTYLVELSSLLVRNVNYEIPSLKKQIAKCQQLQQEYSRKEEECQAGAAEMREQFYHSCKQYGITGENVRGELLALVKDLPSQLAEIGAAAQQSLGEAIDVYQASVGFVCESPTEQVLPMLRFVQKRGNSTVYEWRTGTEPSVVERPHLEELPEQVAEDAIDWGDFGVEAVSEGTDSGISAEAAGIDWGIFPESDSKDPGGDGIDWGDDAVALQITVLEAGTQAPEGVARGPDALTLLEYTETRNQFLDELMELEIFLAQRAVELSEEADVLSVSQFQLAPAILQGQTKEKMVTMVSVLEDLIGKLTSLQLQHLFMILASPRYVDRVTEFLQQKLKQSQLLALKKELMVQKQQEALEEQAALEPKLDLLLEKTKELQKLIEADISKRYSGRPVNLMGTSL

[42] = biological target: TEAD4, G9a-methylated (human) (UniProt Q15561)
[43] = biological target: LRRC20, G9a-methylated (human) (UniProt Q8TCA0)
Sequence of LRRC20, G9a-methylated (human) (Q8TCA0 whole entry): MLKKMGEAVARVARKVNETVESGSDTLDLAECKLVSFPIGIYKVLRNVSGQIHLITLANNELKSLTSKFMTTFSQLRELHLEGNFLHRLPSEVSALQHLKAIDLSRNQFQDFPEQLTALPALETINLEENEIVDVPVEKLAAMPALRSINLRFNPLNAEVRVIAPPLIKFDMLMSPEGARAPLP

[44] = biological target: RAB7B, G9a-methylated (human) (UniProt Q96AH8)
Sequence of RAB7B, G9a-methylated (human) (Q96AH8 whole entry): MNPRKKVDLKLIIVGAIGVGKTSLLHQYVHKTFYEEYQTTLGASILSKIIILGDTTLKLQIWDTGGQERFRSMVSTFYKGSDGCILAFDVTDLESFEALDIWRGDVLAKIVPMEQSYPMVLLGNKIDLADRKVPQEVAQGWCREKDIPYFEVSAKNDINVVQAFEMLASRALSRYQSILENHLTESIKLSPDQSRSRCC

[45] = biological target: PSMA8, G9a-methylated (human) (UniProt Q8TAA3)

Sequence of FTL, G9a-methylated (human) (P02792 whole entry): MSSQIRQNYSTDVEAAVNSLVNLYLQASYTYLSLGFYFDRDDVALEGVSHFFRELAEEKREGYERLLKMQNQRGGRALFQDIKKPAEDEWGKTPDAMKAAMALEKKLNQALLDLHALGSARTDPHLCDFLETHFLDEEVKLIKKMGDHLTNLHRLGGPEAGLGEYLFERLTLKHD

3× Flag-3×MBT (designed binder)
G9a Average SNR [1]: 13.4 | G9a Average SNR [2]: 34.2 | G9a Average SNR [3]: 16.6 | G9a Average SNR [4]: 37.2 | G9a Average SNR [5]: 16.5 | G9a Average SNR [6]: 16.6 | G9a Average SNR [7]: 21.2 | G9a Average SNR [8]: 12.6 | G9a Average SNR [9]: 15.2 | G9a Average SNR [10]: 21.5 | G9a Average SNR [11]: 11.8 | G9a Average SNR [12]: 13.6 | G9a Average SNR [13]: 25 | G9a Average SNR [14]: 26.6 | G9a Average SNR [15]: 19.8 | G9a Average SNR [16]: 15.7 | G9a Average SNR [17]: 15.7 | G9a Average SNR [18]: 13.6 | G9a Average SNR [19]: 15.4 | G9a Average SNR [20]: 25.5 | G9a Average SNR [21]: 16.4 | G9a Average SNR [22]: 20.2 | G9a Average SNR [23]: 38.7 | G9a Average SNR [24]: 12.3 | G9a Average SNR [25]: 16.4 | G9a Average SNR [26]: 29.2 | G9a Average SNR [27]: 17.6 | G9a Average SNR [28]: 11.9 | G9a Average SNR [29]: 13.6 | G9a Average SNR [30]: 15.8 | G9a Average SNR [31]: 44 | G9a Average SNR [32]: 13.6 | G9a Average SNR [33]: 20.7 | G9a Average SNR [34]: 23.3 | G9a Average SNR [35]: 11.6 | G9a Average SNR [36]: 12.7 | G9a Average SNR [37]: 17.2 | G9a Average SNR [38]: 19 | G9a Average SNR [39]: 14.6 | G9a Average SNR [40]: 34.5 | G9a Average SNR [41]: 13.8 | G9a Average SNR [42]: 16.9 | G9a Average SNR [43]: 32.3 | G9a Average SNR [44]: 12.7 | G9a Average SNR [45]: 13.1
